Consider two molecules from publication PMC9712689 (Communications Biology, 2022).

Common to all, as to conditions: both partners purified
The target of assay [1] is T1, PBP1a (P. aeruginosa PAO1, UniProt Q07806 27-822). Description: MST.
Assay [2] has as its target T2, PA2854 (P. aeruginosa PAO1, UniProt Q9HZZ0).
T2 construct: source: E. coli, purified (Ni-NTA or Strep-Tactin)
T2 sequence: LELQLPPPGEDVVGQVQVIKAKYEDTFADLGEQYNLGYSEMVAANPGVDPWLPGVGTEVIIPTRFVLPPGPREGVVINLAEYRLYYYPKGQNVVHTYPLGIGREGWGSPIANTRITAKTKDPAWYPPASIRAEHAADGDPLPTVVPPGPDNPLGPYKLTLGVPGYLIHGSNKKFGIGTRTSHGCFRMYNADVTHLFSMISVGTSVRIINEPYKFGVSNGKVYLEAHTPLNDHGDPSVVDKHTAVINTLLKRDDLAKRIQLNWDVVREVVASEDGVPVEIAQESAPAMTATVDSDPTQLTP
Description: SPR.

Assay [3] has as its target T3, PilO (P. aeruginosa PAO1, UniProt G3XD51).
T3 construct: source: E. coli, purified (Ni-NTA or Strep-Tactin)
T3 sequence: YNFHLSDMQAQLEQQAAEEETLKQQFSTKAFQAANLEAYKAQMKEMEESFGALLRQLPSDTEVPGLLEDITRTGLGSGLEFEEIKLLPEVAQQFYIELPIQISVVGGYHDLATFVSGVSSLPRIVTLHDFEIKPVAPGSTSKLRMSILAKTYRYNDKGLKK
Briefly: SPR.

The target of assay [4] is T4, MltD (P. aeruginosa PAO1, UniProt Q9I2T2 1-534).
T4 sequence (looked up): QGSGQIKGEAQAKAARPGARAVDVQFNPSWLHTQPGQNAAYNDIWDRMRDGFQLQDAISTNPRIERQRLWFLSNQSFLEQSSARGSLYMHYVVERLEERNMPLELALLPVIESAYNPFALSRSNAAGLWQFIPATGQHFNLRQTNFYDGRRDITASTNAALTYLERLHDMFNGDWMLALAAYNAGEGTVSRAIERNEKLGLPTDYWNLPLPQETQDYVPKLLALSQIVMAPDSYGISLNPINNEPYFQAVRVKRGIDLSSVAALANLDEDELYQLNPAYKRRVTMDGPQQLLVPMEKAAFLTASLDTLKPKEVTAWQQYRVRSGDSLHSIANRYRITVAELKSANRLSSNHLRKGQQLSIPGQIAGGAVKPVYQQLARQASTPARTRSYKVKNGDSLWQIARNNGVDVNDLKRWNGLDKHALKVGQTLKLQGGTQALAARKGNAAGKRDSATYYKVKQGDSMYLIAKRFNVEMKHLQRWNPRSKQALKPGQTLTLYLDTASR
Description: SPR; RlpA-Δ81 or RlpA-SPOR amine-coupled to its own CM4 chip, partner as analyte; 25 °C; 10 mM HEPES pH 7.4, 150 mM NaCl, 3 mM EDTA, 0.005% P20; alternate fitting model for PBP1a on RlpA-SPOR.

For assay [5], the target named is T5, MltF2 (P. aeruginosa PAO1, UniProt Q9HZY1 1-476).
T5 sequence (looked up): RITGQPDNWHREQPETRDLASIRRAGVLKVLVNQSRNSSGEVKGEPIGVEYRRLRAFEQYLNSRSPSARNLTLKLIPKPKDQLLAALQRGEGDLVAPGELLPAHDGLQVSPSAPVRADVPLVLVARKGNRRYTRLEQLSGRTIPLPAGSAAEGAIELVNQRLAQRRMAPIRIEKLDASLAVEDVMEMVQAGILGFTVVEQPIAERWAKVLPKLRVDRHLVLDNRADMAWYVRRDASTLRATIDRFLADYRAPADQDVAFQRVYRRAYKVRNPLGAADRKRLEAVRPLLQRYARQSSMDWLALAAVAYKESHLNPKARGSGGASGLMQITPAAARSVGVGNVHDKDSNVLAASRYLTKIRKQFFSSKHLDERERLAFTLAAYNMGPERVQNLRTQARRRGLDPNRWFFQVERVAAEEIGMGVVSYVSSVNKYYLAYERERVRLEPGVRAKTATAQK
The assay is described as above.

Assay [6] concerns the target T1, PBP1a. The assay is described as above.
The target of assay [7] is T6, TypA (P. aeruginosa PAO1, UniProt Q9HU67 1-605).
T6 sequence (looked up): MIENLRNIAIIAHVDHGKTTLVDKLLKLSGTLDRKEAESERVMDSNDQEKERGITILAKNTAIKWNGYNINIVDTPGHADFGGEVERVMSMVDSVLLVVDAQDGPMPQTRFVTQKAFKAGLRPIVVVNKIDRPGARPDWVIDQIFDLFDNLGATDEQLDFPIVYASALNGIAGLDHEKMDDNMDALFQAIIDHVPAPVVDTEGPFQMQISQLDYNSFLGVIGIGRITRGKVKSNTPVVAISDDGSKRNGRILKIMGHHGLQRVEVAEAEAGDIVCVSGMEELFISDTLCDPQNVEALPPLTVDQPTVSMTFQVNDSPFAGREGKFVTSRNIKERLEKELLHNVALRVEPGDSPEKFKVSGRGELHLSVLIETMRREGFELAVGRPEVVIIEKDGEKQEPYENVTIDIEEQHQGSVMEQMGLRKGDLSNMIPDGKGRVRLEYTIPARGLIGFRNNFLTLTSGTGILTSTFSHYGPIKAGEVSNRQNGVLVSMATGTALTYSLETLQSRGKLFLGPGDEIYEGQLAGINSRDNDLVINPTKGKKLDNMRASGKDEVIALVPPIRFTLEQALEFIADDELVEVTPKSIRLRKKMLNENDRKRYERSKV
Described as above.

The target in assay [8] is T1, PBP1a. Description: ITC. In general terms: Isothermal titration calorimetry measures the heat released or taken up as one component is titrated into another.
Assay [9] addresses T7, SltB1 (P. aeruginosa PAO1, UniProt Q9HX24 1-340).
T7 sequence (looked up): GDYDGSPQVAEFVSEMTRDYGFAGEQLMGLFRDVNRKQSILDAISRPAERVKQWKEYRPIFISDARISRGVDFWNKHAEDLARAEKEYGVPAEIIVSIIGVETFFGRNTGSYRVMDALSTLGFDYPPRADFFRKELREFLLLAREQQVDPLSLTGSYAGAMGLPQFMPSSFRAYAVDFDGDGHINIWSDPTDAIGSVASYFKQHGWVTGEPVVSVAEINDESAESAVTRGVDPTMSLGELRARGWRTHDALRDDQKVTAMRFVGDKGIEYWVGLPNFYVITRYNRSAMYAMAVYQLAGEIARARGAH
Briefly: ITC.

Assay [10] has as its target T8, PilA (P. aeruginosa PAO1, UniProt P04739).
T8 construct: source: E. coli, purified (Ni-NTA or Strep-Tactin)
T8 sequence: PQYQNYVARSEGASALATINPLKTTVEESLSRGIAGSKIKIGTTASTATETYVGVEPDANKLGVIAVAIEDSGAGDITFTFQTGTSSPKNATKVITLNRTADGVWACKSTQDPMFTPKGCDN
Description: ITC.

T1 sequence (Q07806 27-822): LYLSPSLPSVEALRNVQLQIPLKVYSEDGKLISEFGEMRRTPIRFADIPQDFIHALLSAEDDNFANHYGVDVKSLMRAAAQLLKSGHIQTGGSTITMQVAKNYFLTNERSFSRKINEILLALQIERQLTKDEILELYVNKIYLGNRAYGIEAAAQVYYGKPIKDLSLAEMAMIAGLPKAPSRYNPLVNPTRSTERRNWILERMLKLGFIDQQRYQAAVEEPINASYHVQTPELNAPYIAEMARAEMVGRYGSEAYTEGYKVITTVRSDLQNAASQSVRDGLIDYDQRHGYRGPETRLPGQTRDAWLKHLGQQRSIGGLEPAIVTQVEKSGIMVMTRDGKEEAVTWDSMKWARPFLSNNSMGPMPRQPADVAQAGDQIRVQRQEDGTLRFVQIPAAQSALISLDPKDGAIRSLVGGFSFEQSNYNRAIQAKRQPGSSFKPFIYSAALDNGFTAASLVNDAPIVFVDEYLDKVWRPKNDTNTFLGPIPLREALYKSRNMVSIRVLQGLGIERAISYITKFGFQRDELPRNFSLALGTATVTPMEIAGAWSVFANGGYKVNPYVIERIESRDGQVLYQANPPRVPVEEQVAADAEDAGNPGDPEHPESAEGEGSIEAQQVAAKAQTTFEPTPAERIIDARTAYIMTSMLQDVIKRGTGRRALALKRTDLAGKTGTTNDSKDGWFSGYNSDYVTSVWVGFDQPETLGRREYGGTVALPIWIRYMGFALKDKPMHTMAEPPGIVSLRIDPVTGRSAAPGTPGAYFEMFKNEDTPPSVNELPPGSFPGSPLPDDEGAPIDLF

B1: RlpA-Δ32·MltF2 complex (MST) (complex)
chain 1: PQQPARQAGISGPGDYSRPHRDGAPWWDVDVSRIPDAVPMPHNGSVKANPYTVLGKTYYPMNDARAYRMVGTASWYGTKFHGQATANGETYDLYGMTAAHKTLPLPSYVRVTNLDNGKSVIVRVNDRGPFYSDRVIDLSFAAAKKLGYAETGTARVKVEGIDPVQWWAQRGRPAPMVLAQPKQAVAQAAPAAAQTQAVAMAQPIETYTPPPAQHAAAVLPVQIDSKKNASLPADGLYLQVGAFANPDAAELLKAKLSGVTAAPVFISSVVRNQQILHRVRLGPIGSADEVSRTQDSIRVANLGQPTLVRPD
chain 2: T5 sequence (looked up)
modifications: amine reactive RED-NHS dye
In general, Kd refers to a measure of binding affinity in units of concentration. Molecule B1 had a Kd in assay [1] of 45 nM.

B2: RlpA-SPOR (domain or fragment, P. aeruginosa PAO1, UniProt Q9X6V6 264-342, looked up)
chain: ADGLYLQVGAFANPDAAELLKAKLSGVTAAPVFISSVVRNQQILHRVRLGPIGSADEVSRTQDSIRVANLGQPTLVRPD
As a reminder, the koff is the rate constant with which the complex falls apart. A lower koff goes with a long-lived complex. The kon is the second-order rate constant of association. The stoichiometry N is the number of molecules, sites or subunits per partner or assembly. As to B2, the Kd in [2] was determined as 1410 nM; in assay [3] it was 5760 nM; in assay [4], 200 nM; in assay [5], 98 nM; in assay [6] it was 190 nM; in assay [7], 4250 nM. The Kd is 104 nM in [8], 9800 nM in assay [9] and 73 nM in assay [10]. For the same molecule, the dissociation rate constant (koff) in assay [2] came to 0.00038 s⁻¹; in [3], 0.00438 s⁻¹; in [4], 0.0027 s⁻¹; in assay [5], 0.00077 s⁻¹; in assay [6] it was 0.00049 s⁻¹; in assay [7] it was 0.00034 s⁻¹. The kon stood at 270 M⁻¹ s⁻¹ in [2]; 760 M⁻¹ s⁻¹ in [3]; 13800 M⁻¹ s⁻¹ in [4]; 7900 M⁻¹ s⁻¹ in [5]; 2600 M⁻¹ s⁻¹ in assay [6]; 80 M⁻¹ s⁻¹ in assay [7]. Moreover, the “stoichiometry N” value worked out at 0.26 in assay [8] and 1 in [10].
